According to the supplement of paper PMC10567573:

B1: ADAMTS4 (parent)
chain: SFRKFRYGYNNVVTIPAGATHILV

Variants of: B1
Assay: protein stability index of a GFP-peptide fusion (GPS, HEK-293T) (PSI 1-6); higher = more stable
Conditions: c terminus: a fixed tail appended
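Also: lentivirally expressed fusions sorted by FACS into six bins by GFP to DsRed ratio, PSI derived from sequencing read proportions per bin multiplied by bin number.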

Protein stability index of substitutions, site by site:
I22: D 2.24; L 2.51; K 2.37; A 1.74; Y 1.92; S 2.36; W 1.83; R 1.88; F 2.58; M 1.9; Q 2.31; P 2.59; E 2.53; T 1.97; V 1.79; N 1.83; H 1.8; G 1.93; C 2.42
Y7: L 2.46; K 2.92; H 1.77; F 3.04; V 2.81; W 2; M 3.02; N 2.43; P 2.83; A 3.52; R 2.8; D 2.07; T 3.1; E 2.63; S 2.19; Q 2.24; I 2.89; C 2.84
V13: P 2.12; E 2.73; F 2.6; M 1.9; I 2.07; Q 1.8; N 2.04; C 2.92; A 3.18; T 2.11; D 2.74; G 2.1; S 1.82; W 3.05; H 1.74; Y 1.49; R 3.77; L 3.1; K 1.97
N10: M 2.49; T 2.18; I 3.13; Y 2.02; K 1.81; G 1.34; S 1.99; D 3.41; Q 1.94; R 2.36; V 1.81; F 2.9; C 2.65; W 1.6; H 1.84; E 1.56; L 4.32; P 1.86
P16: C 2.46; V 1.87; M 2.59; A 2.65; E 2.83; W 2.05; I 2.63; R 1.76; H 2.4; Q 2.25; D 3.51; K 2.19; S 2.5; F 2.57; G 2.36; T 1.36; Y 2.49; L 1.81
F5: T 2.98; W 2.87; S 1.87; Y 1.98; R 3.02; V 3.85
Y9: Q 2.01; R 2.46; M 1.9; A 3.15; F 1.72; V 1.65; K 2.07; N 2.14; L 2.75; W 3.46; I 2.46; D 2.86; H 2.36; C 1.55; T 2.05; S 1.78; G 3.68; E 1.71; P 1.76
A17: F 1.96; K 1.57; E 1.61; D 1.64; V 1.24; I 1.86; P 1.98; S 1.78; T 1.97; L 2.31; H 1.78; W 2.46; Q 1.33; G 1.95; M 1.51; Y 1.6; C 2.36; R 2; N 1.78
R6: V 2.5; G 2.57; N 2.5; P 3.56; W 2.86; T 2.37; C 4.22; Q 3.44; H 2.76; D 2.22; Y 2.15; M 3.49; S 2.95; I 2.3; F 3.68; A 1.91; L 3.25; K 3
L23: H 2.91; A 2.4; P 2.29; E 1.32; C 2.19; I 3.28; R 1.84; M 2.43; T 3.08; K 2; D 1.78; G 2.1; N 1.75; Q 1.37; S 2.52; F 2.76
A19: T 1.36; P 2.17; W 2.72; G 1.22; D 3.22; V 1.84; F 3.91; Y 3.44; E 3.97; C 2.13; N 2.17; Q 1.88; L 3.23; K 3; R 2.67; H 1.96
I15: F 1.55; R 1.44; P 1.52; Q 1.4; G 1.4; K 2.41; D 2.35; C 2.03; H 2.01; L 2.3; A 2.17; E 2.16; V 1.5; T 2.26; W 1.86; M 2.28; S 2.48; N 1.57; Y 2.11
G18: K 2.41; Q 2.88; C 1.73; M 1.54; R 1.85; L 2; V 1.63; F 2.3; D 2.71; P 2.06; W 1.9; Y 1.64; T 2.71; I 1.62; E 2.63; N 1.27; S 2.58; H 1.71; A 1.72
T20: K 2.24; F 3.2; C 2.86; E 2.56; Y 1.69; L 2.9; V 2.55; I 2.77; N 1.85; G 1.49; H 1.63; Q 2.19; M 2.51; P 3.21; A 2.32; W 2.38; D 1.54
T14: Y 2.27; A 1.42; N 3.6; K 3.9; R 1.93; G 1.33; H 2.92; F 2.74; M 3; S 2.65; D 3.24; V 2.61; I 2.36; E 2.79; L 2.38; C 1.81; Q 2.2; P 1.6; W 3.53
H21: V 2.02; S 2.3; Q 2.85; E 3.28; M 2.12; K 2.59; T 3.43; Y 3.3; F 3.18; D 1.66; I 2.4; C 2.43; R 2.32; G 2.48; A 1.3; P 1.28; N 2.65
N11: G 2.89; H 3.34; M 2.27; Q 1.56; W 1.9; T 2.59; L 1.53; Y 1.19; C 2.42; A 3.51; F 1.71; I 2.04; P 2.59; K 1.61; E 2.07; D 2.92; R 1.57; V 2.57; S 2.94
V12: A 2.25; N 1.87; C 2.95; D 3.98; Y 2.88; W 2.09; I 3.16; M 2.29; S 2.08; H 2.33; R 1.7; L 2.58; F 1.71; Q 1.26; P 2.13; T 3.03; E 2.4; K 2.34; G 3.44
G8: D 2.5; L 2.38; F 2.48; I 4.84; E 2.1; Q 2.77; K 2.4; H 3.15; N 3.3; A 2.21; C 2.46; T 2.71; P 2.38; S 3.58; V 2.24; M 2.79; Y 1.51; R 2.96; W 3.33
